The values below come from patent US9133271 (AbbVie / Abbott, dated 2015).

Numbering of substitutions follows the chain as printed.

The chains are these.
B1: hSC16.25 (antibody, V domains shown)
VL: EIVLTQSPDFQSVTPKEKVTITCSASSSVSYMHWYQQKPDQSPKLLIKDSSKLASGVPSRFSGSGSGTDFTLTINSLEAEDAATYYCQQWSSNPLTFGQGTKLEIK
V domain: QITLKESGPTLVKPTQTLTLTCTFSGFSLSTSGMGVGWIRQPPGKALEWLTDIWWDDNKYYNPSLKSRLTITKDTSKNQVVLTMTNMDPVDTATYYCARRVNYYYDPYYAMDYWGQGTTLVTVS
notes: CDR-grafted humanized antibody; also called humanized SC16.25
B2: hSC16.13 (antibody, V domains shown)
VH: QITLKESGPTLVKPTQTLTLTCTFSGFSLSTSGMGVGWIRQPPGKALEWLAHIWWDDVKRYSPSLKSRLTITKDTSKNQVVLTMTNMDPVDTATYYCARIVSFDNDVVSAMDYWGQGTLVTVSS
VL: DIQMTQSPSSLSASVGDRVTITCSASSSVSYMYWYQQKPGKAPKLLIYLTSNLASGVPSRFSGSGSGTDFTLTISSLQPEDFATYYCQQWRSNPFTFGQGTKLEIKR
notes: CDR-grafted humanized antibody; also called humanized SC16.13
B3: SC16.15 (antibody, V domains shown)
VH: QVQLQQSGAELAKPGASVKMSCKASGYTFTRYWIHWIKQRPGQGLEWIGYINPTTVYTEFNQNFKDKATLTADKSSTTASMQLSSLTSEDSAVYYCARGGSNFFDYWGQGTTLTVSS
VL: DIQMTQSPASLAASVGETVAITCRASENIYYNLAWYQQKQGKSPQLLIYTANSLEDGVPSRFSGSGSGTQYSLKINSMQPEDSATYFCKQAYDVPPTFGGGTKLEIK
B4: SC16.10 (antibody, V domains shown)
VH: QVTLKESGPGILQSSQTLSLTCSFSGFSLSTSGMGVGWIRQPSGKGLEWLAHIWWDDVKRYNPVLKSRLTISKDTSSSQVFLKIASVDTADTATYYCARLVDDLYYFDYWGQGTTLTVSS
VL: QIVLTQSPAIMSASLGERVTMTCTASSSVSSSYLHWYQQKPGSSPKLWIYSTSNLASGVPTRFSGSGSGTSYSLTISSMEAEDAATYYCHQYHRSPFTFGSGTKLEIK
B5: SC16.67 (antibody, V domains shown)
VH: EVQLVETGGGLVQPKGSLKLSCAVSAFTFTTYAMNWVRQAPGKGLEWVARIRNKSNNYATYYADSVKDRFTISRDDSQSMLYLQMNNLKIEDTAMYYCVFYYDYVYWGQGTLVTVSA
VL: QAVVTQESALTTSPGETVTLTCRSSTGAVTTSNYANWIQEKPDHLFTGLIGGTNNRAPGVPARFSGSLIGDKAALTITGAQTEDEAIYFCGLWYSNHLVFGGGTKLTVL
notes: murine anti-DLL3 mAb
B6: SC16.34 (antibody, V domains shown)
VH: QIQLVQSGPELKRPGETVKISCKASGYTFTNYGMNWVKQAPGKGLKWMGWINTYTGDPTYADDFKGRFAFSLETSASTAYLQINNLKNEDTATYFCARIGGNSPSDYWGQGTSLTVSS
VL: SIVMTQTPKFLLVSAGDRVTITCKASQSVSNDVAWYQQKPGQSPKLLIYYASNRYSGVPDRFTGSGYGTDFTFTISTVQAEDLAVYFCQQDYSSPWTFGGGTKLEIK
B7: SC16.56 (antibody, V domains shown)
VH: B6 VH with R13K, G49A, D57E, Y80S, N84I, G101D, N102S, S113T
VL: B6 VL with A34V, S56T, T63A, T72S, S93T, K107R
B8: SC16.8 (antibody, V domains shown)
VH: QAQLQQSGAELVRPGTSVKVSCKASGYAFTNYLIEWVKQRPGQGLEWIGVINPGTGGTNYNENFKGKATLTADKSSSTAYMQLSSLTSDDSAVYFCARSPYDYHEGAMDYWGQGTSVTVSS
VL: EIQMTQSPSSMSASLGDRITITCQATQDIVKNLNWYQQKPGKPPSFLIYYAIELAEGVPSRFSGSGSGSDYSLTISNLESEDFADYYCLQFYEFPFTFGAGTKLELK
B9: SC16.65 (antibody, V domains shown)
VH: QVTLKESGPGILQPSQTLSLTCSFSGFSLSTSGMGVGWIRQPSGKGLEWLALIWWDDVKRYNPALKSRLTISKDASSSQVFLKIASVDTADTATYYCARIASYDYDVVYAMDYWGQGTSVSVSS
VL: QIVLTQSPALMSASPGEKVTMTCSVTSSVSYMYWYQQKPRSSPKPWIYLTSNLASGVPARFSGSGSGTSYSLTISSVEAEDAATYYCQQWRNNPFTFGSGTKVEIK
B10: SC16.13 (antibody, V domains shown)
VH: B9 VH with L52H, A75T, A101V, Y103F, Y105N, Y109S, S121T
VL: B9 VL with M11V, V25A, T26S, V77M, N92S, V103L
B11: SC16.4 (antibody, V domains shown)
VH: QIQLVQSGPELKKPGETVKISCKASGYTFTDYSMHWVKQAPGKGLKWMGWINTETGEPGYADDFKGRFAFSLETSASTAYLQINNLKNEDTATYFCARYDGYAMDYWGQGTSVTVSS
VL: DIQMTQTTSSLSASLGDRVTISCRASQDISNYLNWYQQKPDGTVKLLIYYTSRLHSGVPSRFSGSGSGTDYSLTISNLELEDIATYFCQQGDMLPWTFGGGTKLEIK
B12: SC16.39 (antibody, V domains shown)
VH: EVKLEESGGGLVQFGGSMKLSCAASGFTFSDAWMDWVRQSPEKGLEWVAEIRNKANNHATYYPESVKGRFTISRDDSKSRVYLQMNNLRAEDTGIYYCTGYSSFAYWGQGTLVTVSA
VL: B11 VL with I29V, S30I, G68R, L80P, F87Y, G91Y, D92S, M93E, L94R, W96Y
B13: SC16.25 (antibody, V domains shown)
VH: QVTLKESGPGILQPSQTLSLTCSFSGFSLSTSGMGVGWIRQPSGEGLEWLTDIWWDDNKYYNPSLKSRLTISKDTSSNQVFLNITSVDTADTATYYCARRVNYYYDPYYAMDYWGQGTSVTVSS
VL: QIVLTQSPAIMSASPGEKVTMTCSASSSVSYMHWYQQKSGTSPKRWIYDSSKLASGVPARFSGSGSGTSYSLTISSMEAEDAATYYCQQWSSNPLTFGAGTKLELK

The target of the first experiment is T1, murine DLL3 on 293 cells (h293-mDLL3) (murine, UniProt O88516 33-584).
T1 sequence: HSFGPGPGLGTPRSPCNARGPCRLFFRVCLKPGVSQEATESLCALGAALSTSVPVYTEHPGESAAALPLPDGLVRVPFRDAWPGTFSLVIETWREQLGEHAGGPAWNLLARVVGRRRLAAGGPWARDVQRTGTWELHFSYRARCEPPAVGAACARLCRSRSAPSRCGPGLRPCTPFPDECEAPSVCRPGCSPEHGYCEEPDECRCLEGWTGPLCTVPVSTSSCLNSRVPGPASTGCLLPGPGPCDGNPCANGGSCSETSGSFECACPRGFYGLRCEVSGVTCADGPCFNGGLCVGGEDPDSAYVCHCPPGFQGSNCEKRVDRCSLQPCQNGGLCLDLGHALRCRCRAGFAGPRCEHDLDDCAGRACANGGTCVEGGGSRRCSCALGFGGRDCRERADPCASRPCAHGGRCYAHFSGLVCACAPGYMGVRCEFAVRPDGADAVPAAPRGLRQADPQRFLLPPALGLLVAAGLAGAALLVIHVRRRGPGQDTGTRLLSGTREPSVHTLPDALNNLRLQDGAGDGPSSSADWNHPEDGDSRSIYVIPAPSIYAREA
Nature of the experiment: assay and form of the mouse antigen not given on the sheet; table of properties of humanized constructs.
On to B1, for which the binding result is on record as “no binding”.
With B2, the binding result is listed as “no binding”.

Another experiment deals with T2, human DLL3 on cells (h293-hDLL3 cells; endogenous DLL3 on NTX tumor cells) (human, UniProt Q9NYJ7 27-618).
T2 sequence: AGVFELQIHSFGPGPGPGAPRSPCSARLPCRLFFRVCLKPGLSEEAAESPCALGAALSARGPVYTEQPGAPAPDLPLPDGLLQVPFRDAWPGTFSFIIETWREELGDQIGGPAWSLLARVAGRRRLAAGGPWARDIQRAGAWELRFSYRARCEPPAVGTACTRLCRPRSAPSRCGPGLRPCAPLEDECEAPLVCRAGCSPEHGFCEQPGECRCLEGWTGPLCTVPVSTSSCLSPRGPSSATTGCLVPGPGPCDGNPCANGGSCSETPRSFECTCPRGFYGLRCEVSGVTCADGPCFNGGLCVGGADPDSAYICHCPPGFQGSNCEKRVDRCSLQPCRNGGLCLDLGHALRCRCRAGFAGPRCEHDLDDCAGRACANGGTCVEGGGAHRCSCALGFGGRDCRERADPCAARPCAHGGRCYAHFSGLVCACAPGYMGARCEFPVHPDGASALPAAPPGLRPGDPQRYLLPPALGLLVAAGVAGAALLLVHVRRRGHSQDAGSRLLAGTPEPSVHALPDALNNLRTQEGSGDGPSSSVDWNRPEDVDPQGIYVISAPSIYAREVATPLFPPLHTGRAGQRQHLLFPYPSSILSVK
Nature of the experiment: cell-based or functional assay.
For the molecule B3, the “% Live Cells (in vitro), KDY66 cells, antibody plus anti-mouse IgG Fab-saporin” value (“% Live Cells (in vitro), KDY66 cells” for short) is 24%.
For the molecule B4, the “% Live Cells (in vitro), KDY66 cells” value was determined as 18%.
As for B5, the “% Live Cells (in vitro), KDY66 cells” value came to 37%.
The same measure, in the same setting: with B6 the figure was 12%; with B7, 16%; with B8, 82%.
Same read-out and setting: the result for B9 reads 13%.
As to B10, the “% Live Cells (in vitro), KDY66 cells” value came to 31%.
In the case of B11, the “% Live Cells (in vitro), KDY66 cells” value came out at 49%.
Consider B12, for which the “% Live Cells (in vitro), KDY66 cells” value came out at 98%.
Same read-out and setting: with B13 the figure was 28%.

The target in a further experiment is T2, human DLL3 on cells (h293-hDLL3 cells; …). Nature of the experiment: cell-based or functional assay. The source holds these as a separate data set.
With B3, the “EC50 of killing of OV26 NTX tumor cells with anti-mouse IgG Fab-saporin” value is 0.14 pM.
Consider B6, for which the “EC50 of killing of OV26 NTX tumor cells with anti-mouse IgG Fab-saporin” value was found to be 5.7 pM.

A further experiment addresses T1, murine DLL3 on 293 cells (h293-mDLL3). Nature of the experiment: flow cytometry on 293 cells over-expressing murine DLL3.
With B5, the binding result is reported as “no binding”.
